T1: Helicobacter pylori UreE, wild-type (residues 1-170) (Helicobacter pylori, UniProt Q09064 1-170)
T1 sequence (looked up): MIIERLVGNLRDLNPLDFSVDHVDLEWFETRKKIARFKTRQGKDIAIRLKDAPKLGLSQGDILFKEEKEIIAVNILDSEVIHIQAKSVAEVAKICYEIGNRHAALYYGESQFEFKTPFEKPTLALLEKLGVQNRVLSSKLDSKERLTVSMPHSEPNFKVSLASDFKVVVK

B1: Helicobacter pylori UreE(1-158), C-terminal truncation variant (domain or fragment, UniProt Q09064 1-158, looked up)
chain: MIIERLVGNLRDLNPLDFSVDHVDLEWFETRKKIARFKTRQGKDIAIRLKDAPKLGLSQGDILFKEEKEIIAVNILDSEVIHIQAKSVAEVAKICYEIGNRHAALYYGESQFEFKTPFEKPTLALLEKLGVQNRVLSSKLDSKERLTVSMPHSEPNFK
B2: Helicobacter pylori UreE(1-148), C-terminal truncation variant (domain or fragment, UniProt Q09064 1-148, looked up)
chain: MIIERLVGNLRDLNPLDFSVDHVDLEWFETRKKIARFKTRQGKDIAIRLKDAPKLGLSQGDILFKEEKEIIAVNILDSEVIHIQAKSVAEVAKICYEIGNRHAALYYGESQFEFKTPFEKPTLALLEKLGVQNRVLSSKLDSKERLTV
B3: Helicobacter pylori UreG (enzyme)
chain: MVKIGVCGPVGSGKTALIEALTRHMSKDYDMAVITNDIYTKEDAEFMCKNSVMPRERIIGVETGGCPHTAIREDASMNLEAVEEMHGRFPNLELLLIESGGDNLSATFNPELADFTIFVIDVAEGDKIPRKGGPGITRSDLLVINKIDLAPYVGADLKVMERDSKKMRGEKPFIFTNIRAKEGLDDVIAWIKRNALLED
B4: Helicobacter pylori HypA with C-terminal Strep-tag II (HypAstr) (natural protein, UniProt P0A0U4 1-117, looked up)
chain: MHEYSVVSSLIALCEEHAKKNQAHKIERVVVGIGERSAMDKSLFVSAFETFREESLVCKDAILDIVDEKVELECKDCSHVFKPNALDYGVCEKCHSKNVIITQGNEMRLLSLEMLAE

Experiments:
[1] = target: the molecule itself; assay: crystal structure
[2] = target: B3; assay: crystal structure
[3] = target: T1, Helicobacter pylori UreE, wild-type …; assay: pull-down

Row | Binder | binding result [1] | binding result [2] | binding result [3]
1 | B1 | binds | binds | –
2 | B2 | binds | binds | –
3 | B3 | binds | – | –
4 | B4 | – | – | binds
